The values below come from patent publication US20220048948A1 (REGENTS OF THE UNIVERSITY OF MINNESOTA, published 2022).

No end group written: not given here.

B1: Peptide 1 (control CD40-binding peptide) (peptide)
peptide: VLQWAEKGYYTMSNN
modifications: also: also used fluorescently labelled (dye and position not given here), called cyclic, no cyclisation chemistry given
notes: also called control Peptide 1

The first experiment concerns the target CD40 on Rhesus macaque peripheral blood mononuclear cells / B cells (Rhesus macaque, UniProt F6SNI1 21-278). In words: cell-based or functional assay.
For VVQWAEKGYYTMSQN (also: also made with a fluorescent label, dye and site not given here) [Peptide 7], the “MHC class II expression on B cells after activation with recombinant hCD40L, peptide at 30 µM” value (“MHC class II expression on B cells” below) is 50 % reduction.
In the case of VVQWAEKGFFTMSNN (also: also made with a fluorescent label, dye and site not given here) [Peptide 3], the “MHC class II expression on B cells” value amounted to 50 % reduction.
The same measure, in the same setting: the figure for VLQWAERGFYTTSNN (also: also made with a fluorescent label, dye and site not given here) [Peptide 2] is 50 % reduction; for LVNWADKAFYTTSNN (also: also made with a fluorescent label, dye and site not given here) [Peptide 5] it is 50 % reduction; for B1 it is 50 % reduction.
Turning to VLNWADKAYFTMSQN (also: also made with a fluorescent label, dye and site not given here) [Peptide 4], the “MHC class II expression on B cells” value was 50 % reduction.
For LLQWAERGYFMTSNN (also: also made with a fluorescent label, dye and site not given here) [Peptide 6], the “MHC class II expression on B cells” value turned out to be 50 % reduction.

The target of another experiment is T1, FLAG-tagged rhsCD40 (Alexis) (human, UniProt P25942 21-193, limits assumed).
T1 construct: Bought reagent (Alexis); also called recombinant human CD40; human CD40; not shown: FLAG tag
T1 sequence (P25942 21-193 limits assumed): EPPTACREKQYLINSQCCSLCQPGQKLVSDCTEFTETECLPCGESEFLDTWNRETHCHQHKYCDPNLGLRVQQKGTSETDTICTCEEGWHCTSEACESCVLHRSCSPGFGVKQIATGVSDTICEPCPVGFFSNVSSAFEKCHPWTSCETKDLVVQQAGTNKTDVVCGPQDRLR
In words: ELISA, peptide and FLAG-tagged rhsCD40 (1 ug/ml), detected with HRP anti-FLAG antibody, TMB, OD 450 nm. The method, then:
Binding of the identified peptides to CD40 was analyzed by ELISA. Briefly, plates were coated with […] and then incubated with identified peptides and detected using Flag-tagged rhsCD40.
In order to confirm the specificity of the peptides to interfere with CD40:CD154 interaction, the specificity of peptides 1-7 as listed in table 1 to bind to human […] by ELISA was tested. Briefly, 96 well ELISA (Nunc Immunolon) plates were coated with the peptides in carbonate buffer. The wells are washed and probed with FLAG-tagged rhsCD40 (1 μg/ml; Alexis) and developed with HRP conjugated rabbit anti-FLAG antibody. The plates were washed and the enzymatic activity was determined using 3,3′,5,5′-tetramethyl-benzidine substrate for 15 minutes and the reaction was stopped by the addition of 2 M H2SO4, and optical density was measured at 450 nm, with the correction wavelength set at 620 nm.
Background: In an ELISA, binding on a coated surface is turned into a signal by an enzyme label.
In the case of VVQWAEKGYYTMSQN (also: also made with a fluorescent label, dye and site not given here) [Peptide 7], the binding result is on record as “binds”.
Still for that read-out and setting: the entry for VVQWAEKGFFTMSNN (also: also made with a fluorescent label, dye and site not given here) [Peptide 3] is “binds”; for VLQWAERGFYTTSNN (also: also made with a fluorescent label, dye and site not given here) [Peptide 2] it is “binds”; for LVNWADKAFYTTSNN (also: also made with a fluorescent label, dye and site not given here) [Peptide 5] it is “binds”.
As for B1, the binding result is listed as “binds”.
For VLNWADKAYFTMSQN (also: also made with a fluorescent label, dye and site not given here) [Peptide 4], the binding result is recorded as “binds”.
The same measure, in the same setting: the value for LLQWAERGYFMTSNN (also: also made with a fluorescent label, dye and site not given here) [Peptide 6] was “binds”.
